From US20100055110A1 (XOMA TECHNOLOGY, published 2010)

Target: recombinant human IL-1β (human, UniProt P01584 117-269)
Experiment: cell-based or functional assay

- IC50 (read off the curve); % inhibition of IL-6 release from human fibroblasts stimulated with IL-1 beta at 100 pg/ml: ~0.2 nM
B1: AB1 (antibody, V domains shown)
VH: QVTLKESGPGILKPSQTLSLTCSFSGFSLSTSGMGVGWIRQPSGKGLEWLAHIWWDGDESYNPSLKTQLTISKDTSRNQVFLKITSVDTVDTATYFCARARYDPPWFVDWGQGTLVTVSS
VL: DIQMTQTTSSLSASLGDRVTISCRASQDISNYLSWYQQKPDGTVKLLIYYTSKLHSGVPSRFSGSGSGTDYSLTISNLEQEDIATYFCLQGKMLPWTFGGGTKLEIK
